Experimental data from the domain aggregation screens of Martell et al. (2025).

Assay: soluble fraction after stress (log2 fold change); higher = more stays soluble; pooled small domains, quantitative proteomics
Details: stress: 75 degC
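Note: 20 min heating vs room temperature control held 20 min.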

Sequence	soluble fraction (log2)
HMTRQRQLIYNIIQRADDHPTAEMIYARAKAEMPSIAFGTVYRNLKLMVDAGEILHIPVAGEPDRYDK	-1.96
HMTRVANIPYSEFLKLVETDKINDVSMVGKTISGHLDDGTKFSTYTPPNDPNLIDKLSKHNVIIKAGPE	-0.000643
HMTRVDKLQTWLSLPREQRDWDEGALMLLQLTGNKIMYRNLSVNPEGKANFIEGKLQQYLEFRLA	-1.25
HMTSAHEKAFDLFDGGKLSEKALLIAVGAERSGFELAGDLRLRTLTAFEDGRLSEDAMIKLL	-0.299
HMTSAIAEGTVIRLTQSTNIRESMSEDAPKVATAFSGEKVTVIMSYAEGWTKVTYGDKTGYIKTELL	-1.1
HMTSAPHHIAAVLRDAIYRGVLEEGGPLHQARIAQSLGVSPIPLREALRLLETEGLVEFRGYRGAFVT	-0.557
HMTSDADSLRDKTGYVAEQVTSKGGKVNLYDGGFDSLYSARSTGETISTGTEIRVVDPGGGNMLVVEPV	0.948
HMTSDYEPSEKDEKAVIGIAFLRNTDVYDVDIDKAEAIKALKANNDIYQKFVKFFPFVKLPSLYDDFQ	0.251
HMTSGPAWPALSAQQRSVLAPLQRDWHTIDAARKAKWLEVAARFPSMPAEERQRVQERMAEWA	-0.0911
HMTSKIIIGDSYSKINKLLGEPENMKKRKFLDNEYLMVLYSINKKNYRLYFKDNILFELEDI	-0.991
HMTSLQDLLEELRVIRETLTGSQVLSDMQLFSQLRNLGDIKAALTRMQDNPAAARMVGEVDKLLETMFAS	-1.97
HMTSLSYINDLVTGATAQGLYRIVVPNQFMDDNMANVLRRTYGYQVQSRTSLMGTFDDYIISWAPPM	-2.9
HMTSMTHLGRHPDSEISLDDISVSRRHAEIERQGHEYVLRDSGSLNGTYVNQQRVDSVVLQQGDEIL	0.48
HMTSPLQIHPNPATKHIELGLESPEVVLIKDINGKTVYQELVAPNQYIDIEHLKNGIYFIESKNKFGKLIK	0.0829
HMTSPNPLIRSTTPGLETNKKGGIIVDENEMSTRENVFAGGDAVTGAATVILAMGAGKKAAAAIDAKLQN	0.461
HMTSPQGIERFLASGVIEGVGKAMAARIVAVFGGQTLEIIEKQPHRLREVRGIGVKTAEKIHASYQEKA	-0.841
HMTSPVEDLLDKAIQLYREENFEEAIAKWEEVLALDPSKLEAKFNIEIAQDRIKEKQIQEDLKSS	0.341
HMTSQVTVHVVGAVEKPGVVTLDAPSRVQDALEAAGGALPEAELSGVNLARELFDGEQIVVPAQGEDV	0.342
HMTSSVIIPKLIGKTEEEAKVALAGLNVQVLYETHGDQANGIVIKQSFEEGTKVIKGVSIVITVNKVS	-1.91
HMTSTEQEILIEHMVDRLPALRKKYGISQTELGEKIGLSRQTISAIERKTTPLTWTTMLAILMFFT	-1.82
HMTSTSVKYVNSSSGLNVRKGPSTSYDKVTTLVNGTKVTVISTNNGWSKITSGSITGYVSSQYLSSSS	-1.27
HMTSVAYVIDRINKIQNVYSELEALGLKDEFEKILSNIEDLSKKDIREIKTLLKTKGVIKNLDDLNVKL	0.762
HMTSVQDLLRNGDRVGYQNGSTVKYWLEEMGFHKKDLLGYVTVEEYAEALQRGSGNGGVSAIVD	-0.811
HMTTARERVYKTLQQWIVNGTLLPEERLNDVELARYFSVSRTPVREALQMLAEQKLVKMVPSSGTFVA	-1.44

Sequence	soluble fraction (log2)
HMTTELDTTAITPIIQKVLKANPDVVAKYKAGQQQVIGFLMGQVMRELSTKPNPKELQSLIVAQLQQA	-0.0252
HMTTGEIIQRERTRLGLSQEKLAEQVGVSRQAVSKWELGDAVPDTDKLVPLARTLGISVDTLLD	0.12
HMTTGGAEELGRTERKIVEQVGRGLSNREIAQVLGLSEGTVRNYLSTILGKLGLRDRTQLAIWSVQTGFAA	0.21
HMTTHERHEIIELLRQVGDPMRPKEISEALGKPSGAIRFLLSKLTEEGAIKKTGYGQYTYIP	-0.784
HMTTLTPIGKMKGEIDGDFEAFYLAVDKDGQVYLNRDPDYSENRYEKSRGWELVTREQLAVYEKELHFIP	-0.707
HMTTMYKSDVKGINYDVKAKSWFLRITFNGNQIPIGHFKTEEDAINVKQQLIPYIESKDYTSILAVKAKYS	-1.9
HMTTPDIIVPDVKGMTVAEAQKALEEKGFKVKLEEMTQEGAVPGDVIRIDPVAGTKRKEGAKITLLIARG	-0.0237
HMTTQTGTVKWFNEGKGFGFIAPDDGGKDLFAHFKEIQGTGFKTLAENQRVEFEVTQGQKGPQASKI	-0.0331
HMTTQTTKYVNTTAGLNVRTGPSTSYAKIVTLSYGQSVNVLSTSNGWSKINYNGSTGYVSSQYLQSTKPS	-2.28
HMTTSNPMNVTSAEAAFDNGTDRLNAFISGRTTSEERSTYFPLFVRETKEDFLRAVGRFNEYIANHG	0.055
HMTTTAGTAVVQTGNSGKLNLREQAYSNAGILGRYSNGTIVTVLQKGSAWSYVEVQGQKGYMMSKFLRFT	-2.75
HMTTTFGWENLVGEKGIAATDLHPSGWVTVKDQRVFVVSEGTFIEEGKEVEIMNVDGNRIVVREFKN	0.216
HMTTTPTSQMVTELRSRGWTLRALAQRLGVGHASINRWANGVTPDRDLVAALRALVASGEVP	-0.833
HMTTTYEINDEMLKPLILEIFNKSKQRFGSTKIAPVLKREGYTASIAKVKTLMNELGIKPVNA	-1.07
HMTTTYTVPKVTGMTLEEAREDPDVVGRFTIVEGEKVTSDTVPVGQIVSQEPAAHRQVGEDGLTITVNIS	0.634
HMTTVKDRVYEILKREIVLGKLKPGEPINIAVLSTKLNISSAPLREALNMLSRDGLVTLNPRKHAAVSE	-1.31
HMTTVRLNATVPPELALQRLDRVARELFPEYSRNRLQQWIRSGELLVNGSPSGVRDKVPLGAELAVAANLE	-0.657
HMTTVSINTTGIITASTIRASSALYPPLYTTVQRDAGTFSAGAIIFNSTTSKLEFYDGTTWQSLPG	-0.339
HMTTVTVGSKVRVKAGATFSDGAKPFAEVYNTVYDVQLLSHNGKEARIGIGDQWTGWIYISDLYLANQPAP	-1.84
HMTVEMYIGKTANVLETVTENNGRIAIFGEEWQAKSLNGETIEKGAQAKIVKNDSIIMYVVPI	-0.443
HMTVGENTYELIKKDIIFGVLPPLKKLKLQELKKIYNASVSTLREILSRLTGDGFVFSEEQKGFYVSPV	0.0263
HMTVKEVGYDTFLTMLDKKEIKQVQVEDNQIIFSDNADPVNYYKTGVFNDPDLVNRLQDAGVEFG	1.01
HMTVKEYNRAVDEYSDAVWRFIRGNLRDEDRANDIVQDSFEKLWMHVTEIDYSVAKSWLFSTAYNNMIDI	-0.707
HMTVKKLTINEDNSGRRIDNYLLSIFNSLPRSKIYNIIRKGEVRVNSSRIKPNYRLEQGDLVRIPPNLEFT	0.154

Sequence	soluble fraction (log2)
HMTVKRNLVQEILRLKFRHPENFMPNRAFYQEVGINQMRWWDIFYGRKNINQEEYIALSKYF	-0.353
HMTVLPTEQDAKALVGLGEEEAAKIVEGNGWTYRIGSRDGEQFMLTEDFVTSRLTLGIEKAIVMTATI	-0.906
HMTVLSKEEFVAIEQRLLQLLGTAPVDNKILLQQLSGIKKEKAWKVLSFLQAENKIGMDATGRVYL	-0.974
HMTVPDVKGMGARDAVFLLETLGFKVRINGIGQVYEQSIDPGKSYSKGEFISLRL	-0.699
HMTVPNVVGQRILAAQDILKNLGLKVLVDTNLPNSQWGLRNVKSTNPGAGAVVRVGDTVTLIAR	-0.441
HMTVPTEVALELMHATALEDNEQRILYIASFKEKHREHLHATIEVDGQEVTLARYADLVATGAYL	-2.56
HMTVSADIIQKIIKTSTTDENIITIDSISNSISKLALSKITAEDIIEILEASSLVLRNSNGSWTVL	-1.7
HMTVSKLKVINYTIRNGDSLWTISRKFNVTVDKVKEWNGLSDRTLLQPGQKLTLYVDPTIQISH	-1.82
HMTVSLLQTRQRLQALADLGHYKGDLGAAWGPDAIEALKKAQATLGVTVDGKWGPQTEDAIQVALKVQ	-0.237
HMTVTISPGYEGRLLRSYLKNTLSLSTSALARLKTREDGITVNGVRVTVRYVLHAGDLLQLAVD	-0.579
HMTVVHRQVHLQPDQGAFRAALYSHKAVLSEQTDDQGAINLEIRLPESDFLRLLNSSGLKLQDLVP	-0.427
HMTVVSVDDQASASSEAIRTKVAGDSAARMSVDAGGKITWGAGSASGDVTLYRSAANTLKTDDTLVAT	0.16
HMTYADTRDLLIRRGMELLTEQGIAATSIERVLQSTGIPKGSFYHYFATKHDFTLAVMDAYHHY	-0.157
HMTYAQQIGARIAFLRRLKGLTLAELAERVNKHKSTISKYESGQIIIDIESLKEVADALGVDVAQIVE	-1.26
HMTYFDIAPELLTVYKEINDIPRDINQIVRKTGLSINEVSYKTMILQLEDKIVELPGQRFIRNS	-2.46
HMTYKHLTIDEMKRFLSTREDSQSALVQFARVENVVGNRKGKYAVIKKWFLKNYKEEYNAFLS	0.0231
HMTYPGSIALVNPKHEAFVQHYVATSGSRGQAAKLAGVTTTTARNLLQDVEATARIRYLNAQQFQ	-0.12
HMTYTGTVTGVDEGGLRVRSSTSTENTSNVITKVYTGDTFDVLDTVYNGSAKWYKIGFTYNGTYTYGYVSA	-1.51
HMTYVSVSNYIGTNVDKAKGELESQGLVVLLEEQKTEDKSQDGMVLKQTIEGGTKVSSGSRITLIYGRYT	-0.0441
HMVADEGELLAIAREVVAANPKVFEDWKAGKQSAAQWFVGQIMKRTRGRANPQLALKLVTQALEEHAR	0.0384
HMVAEKSKIEMAIDSINKLAKELADSGVAKKTISDIIKSVSGSANYNKITDFEVATDVYKELVALKNKEDT	0.223
HMVAESGLPPAFRSTWRHIMQTRGAQLDVLAMRTGTDAASLQKQLHAMELGGWVRRMPGGWYVPLK	-1.78
